# Source: patent publication US5496831, “Inhibition of insulin-induced adiposis” (The General Hospital Corporation)
# B1: E2 mutant (GC to TA) (dsDNA)
# DNA 1: ATTTAAGTTTCGATCCCTTTCTCAA
# DNA 2: TTGAGAAAGGGATCGAAACTTAAAT
# B2: IRE-A minimal motif tetramer-CAT (dsDNA)
# DNA 1: AAGTTCCCCAACTTTCCCGCCTCTCAGCCTTTGAAAG
# DNA 2: CTTTCAAAGGCTGAGAGGCGGGAAAGTTGGGGAACTT
# B3: E2 (cognate E2F site) wild-type (dsDNA)
# DNA 1: ATTTAAGTTTCGCGCCCTTTCTCAA
# DNA 2: TTGAGAAAGGGCGCGAAACTTAAAT
# Tests used:
# GST-RBAP-1 (E2F-1) [1] = molecular target: T1, GST-RBAP-1 (E2F-1) (UniProt Q01094 Q01094:1-437); test: competition; mutant competitor vs labelled IRE-A; details: tags: GST fusion, bacterial expression, glutathione Sepharose purified
# T1 sequence (Q01094 whole entry, the tested form may be a part, one chain of several): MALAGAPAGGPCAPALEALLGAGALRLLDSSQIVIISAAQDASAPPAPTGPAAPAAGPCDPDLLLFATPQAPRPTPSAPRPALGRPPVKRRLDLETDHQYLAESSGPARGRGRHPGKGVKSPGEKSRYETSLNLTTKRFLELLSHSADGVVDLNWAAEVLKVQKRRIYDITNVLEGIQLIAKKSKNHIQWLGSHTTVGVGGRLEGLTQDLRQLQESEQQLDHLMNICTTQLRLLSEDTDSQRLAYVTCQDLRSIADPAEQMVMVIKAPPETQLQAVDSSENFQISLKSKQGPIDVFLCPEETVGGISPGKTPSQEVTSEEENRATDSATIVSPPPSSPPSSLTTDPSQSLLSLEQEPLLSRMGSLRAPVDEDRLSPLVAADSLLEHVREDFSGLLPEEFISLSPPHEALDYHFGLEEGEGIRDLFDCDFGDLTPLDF
# Procedure: (§1) FIG. 4C is an electrophoretic mobility shift assay showing IRP-A and GST-RBAP-1 complexes with IRE-A DNA. GST-RBAP-1 (lanes 1–3) or nuclear proteins isolated from fasted-refed liver nuclear extract (lanes 4–6) were incubated with ^32P-labelled IRE-A DNA in the presence of: lanes 1 and 4, mutant IRE-A DNA (GC→TA); lanes 2 and 5, wild-type E2 DNA; and, lanes 3 and 6, mutant E2 DNA (GC→TA) as described above.
# (§2) The EMSA procedure has been described previously (Nasrin, et al., Proc. Natl. Acad. Sci. USA, 87:5273–5277, 1990). Nuclear extract or GST-RBAP-1 was incubated with 0.25–0.5 ng of ^32P-labelled oligo in 20 μl of binding buffer containing 10 mM HEPES (pH 7.9), 0.1 mM EDTA, 10 mM MgCl_2, 5 mM KCl, 150 mM NaCl, 25 mM DTT and 250 ng of poly(dI)poly(dC). The reaction products were separated at 4° C. in a 4.5% polyacrylamide gel run in 50 mM Tris-HCL (pH 8.5), 380 mM glycine and 2 mM EDTA. The gel was dried and exposed to film. The sequences of the oligonucleotides used to characterize IRE-A-like and E2F-like DNA binding activities are shown. Cognate E2F sites include E2F wild-type, 5'-[…]-[…]-3' (SEQ ID NO: 4); E2F mutant, 5'-ATT-[…]-3' (SEQ ID NO: 5); DRTF wild-type, 5'-[…]-3' (SEQ ID NO: 6). The GAPDH IRE-A used for gel shifts included nucleotides −487 to −408 of the promoter (Nasrin, et al., Proc. Natl. Acad. Sci. USA, 87:5273–5277, 1990). […]
# E2F-1 = E2F-1 (UniProt Q01094 Q01094:1-437); test: cell_activity; CAT stimulation by CMV-E2F in L6 muscle cells; tetramer on minimal GAPDH promoter; details: tags: CMV-E2F expression plasmid
# E2F-1, sequence (Q01094 whole entry, the tested form may be a part, one chain of several): as above
# GST-RBAP-1 (E2F-1) [2] = molecular target: T1, GST-RBAP-1 (E2F-1); test: competition; competitor vs labelled IRE-A; details: tags: GST fusion, bacterial expression, glutathione Sepharose purified; label: 32P when used as probe
# Procedure: as §1, §2
binder,measurement,setting,value
B1,binding result,GST-RBAP-1 (E2F-1) [1],no binding
B2,activity,E2F-1,7 fold
B3,binding result,GST-RBAP-1 (E2F-1) [2],binds
